Results published in paper PMC7614608.
pKd: −log10 of the molar value.

Key:
UAP56 (human) = assay: filter binding; details: Filter binding: 150 mM KCl, 20 mM HEPES pH 7.9, 2 mM MgCl2, 5% glycerol, 0.5 mM TCEP, +/-1 mM ATPgS, 50 nM RNA, 20 C, 45 min; EJC assembly for TREX-EJC-RNA: …
ALYREFN (human) = assay: filter binding; details: Filter binding: 150 mM KCl, 20 mM HEPES pH 7.9, 2 mM MgCl2, 5% glycerol, 0.5 mM TCEP, +/-1 mM ATPgS, 50 nM RNA, 20 C, 45 min; EJC assembly for TREX-EJC-RNA: …
[1] = target: ALYREF UBM (Homo sapiens) (UniProt Q86V81); details: cited from earlier work

UAP56, sequence (Q13838 2-428): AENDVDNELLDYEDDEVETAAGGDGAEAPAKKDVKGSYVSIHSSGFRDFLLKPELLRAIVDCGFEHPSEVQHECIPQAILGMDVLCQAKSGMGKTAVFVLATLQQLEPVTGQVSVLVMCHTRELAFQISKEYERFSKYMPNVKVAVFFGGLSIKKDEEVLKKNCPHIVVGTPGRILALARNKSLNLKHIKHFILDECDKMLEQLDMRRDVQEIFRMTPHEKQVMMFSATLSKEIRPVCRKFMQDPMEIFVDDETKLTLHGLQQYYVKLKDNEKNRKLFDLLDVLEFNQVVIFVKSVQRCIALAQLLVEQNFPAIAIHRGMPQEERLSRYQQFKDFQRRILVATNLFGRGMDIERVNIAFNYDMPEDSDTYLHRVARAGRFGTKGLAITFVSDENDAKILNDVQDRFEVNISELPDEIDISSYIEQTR

Substance	pKd (UAP56 (human))	pKd (ALYREFN (human))	pKd [1]
400-nt AdML RNA	6.05	6.22	
UAP56 (from UniProt Q13838)			5.54
